Data from publication PMC7894885, “Cyp33 binds AU-rich RNA motifs via an extended interface that competitively disrupts the gene repressive Cyp33-MLL1 interaction in vitro”.

Experiments:
MLL1 PHD3 (Homo sapiens) = MLL1 PHD3 (Homo sapiens) (UniProt Q03164); settings: cited from earlier work
FL-Cyp33 [1] = molecular target: T1, FL-Cyp33 (human, UniProt Q9UNP9 1-301); experiment: EMSA; EMSA: SELEX buffer (composition in S2 Table, not in material; physiological salt is 135 mM KCl, 15 mM NaCl) + 10% glycerol, 5 nM RNA, 0.5X TBE 8% PAGE at room temperature; NMR: SELEX buffer + 10% D2O, 25 C; pH not given; settings: protein: recombinant, 6xHis-thrombin construct for NMR, hairpin (predicted)
FL-Cyp33 [2] = molecular target: T1, FL-Cyp33; experiment: EMSA; no quantifiable binding by gel shift; EMSA: SELEX buffer (composition in S2 Table, not in material; physiological salt is 135 mM KCl, 15 mM NaCl) + 10% glycerol, 5 nM RNA, 0.5X TBE 8% PAGE at room temperature; NMR: SELEX buffer + 10% D2O, 25 C; pH not given; settings: protein: recombinant; 6xHis-thrombin construct for NMR; single strand
Cyp33-Cyp = Cyp33-Cyp (human, UniProt Q9UNP9 131-301); experiment: NMR 1H-15N HSQC; no significant perturbation; EMSA: SELEX buffer (composition in S2 Table, not in material; physiological salt is 135 mM KCl, 15 mM NaCl) + 10% glycerol, 5 nM RNA, 0.5X TBE 8% PAGE at room temperature; NMR: SELEX buffer + 10% D2O, 25 C; pH not given; settings: protein: recombinant; tags: C-terminal 6xHis, pET15b; label: 5'-32P (EMSA); hairpin (predicted)
Chain of Cyp33-Cyp (Q9UNP9 131-301): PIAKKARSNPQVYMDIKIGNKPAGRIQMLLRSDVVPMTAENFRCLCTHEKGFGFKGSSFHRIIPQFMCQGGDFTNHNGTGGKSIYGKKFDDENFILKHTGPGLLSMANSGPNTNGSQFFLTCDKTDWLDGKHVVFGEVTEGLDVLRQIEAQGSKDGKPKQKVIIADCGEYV

T1 sequence (Q9UNP9 whole entry): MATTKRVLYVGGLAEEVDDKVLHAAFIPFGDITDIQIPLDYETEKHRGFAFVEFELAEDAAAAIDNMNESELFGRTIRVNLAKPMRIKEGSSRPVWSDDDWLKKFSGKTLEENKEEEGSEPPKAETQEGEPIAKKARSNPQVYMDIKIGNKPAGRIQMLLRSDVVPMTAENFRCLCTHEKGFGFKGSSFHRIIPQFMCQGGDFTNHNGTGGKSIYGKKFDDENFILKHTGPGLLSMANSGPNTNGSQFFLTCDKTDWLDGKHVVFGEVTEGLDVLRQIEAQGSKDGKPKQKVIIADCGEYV
Chain of MLL1 PHD3 (Homo sapiens) (Q03164 1566-1627): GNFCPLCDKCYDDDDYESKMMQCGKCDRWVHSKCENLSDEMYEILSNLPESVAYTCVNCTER

Cyp33 RRM (from UniProt Q9UNP9)
Kd (MLL1 PHD3 (Homo sapiens)): 1.9 µM

B1: SO-9 (structured_RNA)
RNA: AAAGUGAGAUAAGGUAACAACAAGAAUAAUAAUAUACCUAUCAUCUUGCC
Kd (FL-Cyp33 [1]; label: 5'-32P): ~90 µM

B2: SO-1 single-stranded region 12-mer (ssRNA)
RNA: AGUGAUAAUUAA
binding result (FL-Cyp33 [2]): no binding

B3: SO-2 (structured_RNA)
RNA: CAGGUGUGUGACUACGAAAGAACAAUAAUAACACAAAAGAGUCCCGUGCC
Kd (FL-Cyp33 [1]; label: 5'-32P): 21 ± 3.1 µM

B4: AAUAAUAA k-mer (ssRNA)
RNA: AAUAAUAA
binding result (FL-Cyp33 [2]): no binding

B5: SO-6 (structured_RNA)
RNA: AGGUGCCUCAAAUCCGCAUAAGAAUAACAACAUGGAGUGAAGCGCUCCCC
Kd (FL-Cyp33 [1]; label: 5'-32P): 36 ± 10 µM

B6: SO-8 (structured_RNA)
RNA: AGAACAAUAAUUACAAAGACUGAGCGUUUUAAAGUCUCCUCAUGUGCCCCC
Kd (FL-Cyp33 [1]; label: 5'-32P): 24 ± 13 µM

B7: SO-3 (structured_RNA)
RNA: UGGUAGACCAGUGAUAAUUAACCUGAUG
Kd (FL-Cyp33 [1]; label: 5'-32P): 32 ± 2.5 µM

B8: SO-1 (structured_RNA)
RNA: UGGUAGACCAGUGAUAAUUAACCUGAUGCGUGGAGGAUAUCGAGUUGUCC
binding result (Cyp33-Cyp): no binding | Kd (FL-Cyp33 [1]; label: 5'-32P (EMSA)): 6.6 ± 0.6 µM

B9: SO-4 (structured_RNA)
RNA: UGGCCGGCCCAUCCCGACUGCCGGGUGAUAGACUCUUUAGCGAUUUAUGG
Kd (FL-Cyp33 [1]; label: 5'-32P): 55 ± 10 µM
